Substitutions are numbered along the chain they refer to.
Legend:
Test in all cases: EMSA
Pus7 D256A/N305A = molecular target: T1, Pus7 D256A/N305A (Saccharomyces cerevisiae, UniProt Q08647 1-676, D256A;N305A)
T1 sequence: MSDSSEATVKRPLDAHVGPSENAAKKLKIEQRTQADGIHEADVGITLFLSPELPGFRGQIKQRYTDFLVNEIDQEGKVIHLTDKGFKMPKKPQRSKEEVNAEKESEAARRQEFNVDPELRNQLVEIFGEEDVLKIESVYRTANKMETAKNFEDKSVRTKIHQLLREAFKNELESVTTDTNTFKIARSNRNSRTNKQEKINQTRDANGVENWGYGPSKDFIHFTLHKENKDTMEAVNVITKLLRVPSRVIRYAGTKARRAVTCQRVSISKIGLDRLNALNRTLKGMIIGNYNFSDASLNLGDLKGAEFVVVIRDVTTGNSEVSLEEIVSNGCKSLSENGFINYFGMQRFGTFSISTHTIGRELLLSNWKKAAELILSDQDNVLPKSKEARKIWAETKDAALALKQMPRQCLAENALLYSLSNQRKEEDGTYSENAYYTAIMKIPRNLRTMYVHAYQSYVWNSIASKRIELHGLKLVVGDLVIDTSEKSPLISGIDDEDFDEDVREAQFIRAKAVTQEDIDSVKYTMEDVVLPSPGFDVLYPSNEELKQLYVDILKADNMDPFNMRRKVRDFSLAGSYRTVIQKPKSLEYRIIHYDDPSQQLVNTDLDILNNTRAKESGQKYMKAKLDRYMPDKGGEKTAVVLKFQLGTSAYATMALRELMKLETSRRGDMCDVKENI

Pus7 D256A/H161A = molecular target: T2, Pus7 D256A/H161A (Saccharomyces cerevisiae, UniProt Q08647 1-676, H161A;D256A)
T2 sequence: T1 sequence with H161A, A305N

Pus7 D256A/E71A = molecular target: T3, Pus7 D256A/E71A (Saccharomyces cerevisiae, UniProt Q08647 1-676, E71A;D256A)
T3 sequence: T1 sequence with E71A, A305N

B1: CDC8 (cdc8-FL, 61 nt) (ssRNA)
RNA: GUCAAUCACGAUUGUAGACGUUACUAAUAAGGGCAUUCAGGAAGUUGAAGCGCUUAUUUGG
Q: What does the source list for B1?
A: Kd (Pus7 D256A/N305A): 230 ± 60 nM; Kd (Pus7 D256A/H161A): 170 ± 40 nM; Kd (Pus7 D256A/E71A): 210 ± 50 nM

From PMC8794802
